Laboratory results published in article PMC5943514, “Substrate specificity of human MCPIP1 endoribonuclease” (Scientific Reports, 2018).

Target: T1, MCPIP1 D141N (Regnase-1), full length (Homo sapiens, UniProt Q5D1E8 1-599, D141N)
T1 sequence: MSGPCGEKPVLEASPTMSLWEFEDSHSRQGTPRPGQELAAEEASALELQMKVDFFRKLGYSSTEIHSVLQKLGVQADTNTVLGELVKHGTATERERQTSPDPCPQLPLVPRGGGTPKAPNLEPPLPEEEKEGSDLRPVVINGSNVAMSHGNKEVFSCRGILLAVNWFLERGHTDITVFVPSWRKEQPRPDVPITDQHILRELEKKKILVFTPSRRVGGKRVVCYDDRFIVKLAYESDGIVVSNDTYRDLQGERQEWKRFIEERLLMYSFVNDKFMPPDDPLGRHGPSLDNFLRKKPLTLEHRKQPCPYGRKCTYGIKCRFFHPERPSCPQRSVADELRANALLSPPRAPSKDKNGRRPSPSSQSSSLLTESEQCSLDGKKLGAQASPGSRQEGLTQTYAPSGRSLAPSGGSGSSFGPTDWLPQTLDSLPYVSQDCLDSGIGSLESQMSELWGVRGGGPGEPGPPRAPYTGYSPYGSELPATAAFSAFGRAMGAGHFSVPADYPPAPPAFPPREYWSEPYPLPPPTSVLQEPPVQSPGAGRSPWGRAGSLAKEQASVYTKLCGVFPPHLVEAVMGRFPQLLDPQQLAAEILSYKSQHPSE
Assay: EMSA; apparent Kd, Hill analysis; 1% agarose, TBE; 25 mM Tris-HCl pH 7.9, 150 mM NaCl, 5% glycerol, 2.5 mM MgCl2, 1 mM DTT, 0.5 mM EDTA, 0.05 mM ZnCl2, 25 C; oligo 2 nM (full length) or 20 nM (PIN, PIN-ZF)
Conditions: protein: recombinant; tags: none stated (purified by ion exchange); chain copies: 2; label: 5' 6-FAM; hairpin

In the case of UGUUGUUCUCUACGAAGAACUGACA (structured_RNA) [mIL-6 82-106 5'FAM], the Kd is reported as 394 ± 45 nM.
